In the test the target is recombinant lamprey tumor necrosis factor receptor (rL-TNFR) (lamprey). Briefly: SPR.

The Kd is the equilibrium constant for the complex coming apart.

B1: recombinant Lr-PGRN-S1 (Lethenteron reissneri short-form progranulin S1) (natural protein)
chain: MGAVFSLGLSKEAIAMALPRPLMFVLVAAGLCALVSADRCPDGRFCVSRCCWKFTQYTCCWAGEGEGQGETQGELATVPAQAISATVSKVSSCAGSVCSANGESRCCPLSEGSCCGDGLSCCGKGSTCTTFRGLNLCLPHAEFQDPVATFLSREQQQHQQGGCVDDSGCPAGSECHVASGDHRGQCVSSDALIPWVEKEAALSGAVGAQVVYCGSGQYCRDGQTCCRLATGSWGCCNIPHAICCSDGIHCCPTGHFCLTASGLCARSTLSLPAVEGV
On to B1, for which the Kd is 337 nM.

For the origin of these results see article PMC9338584 (2022).
